Here are results for one molecule from publication PMC11026580 (2024).

The Kd is the constant that tells how readily two partners part at equilibrium. Low values mean tighter binding, high ones weaker binding.

The experiment deals with FcαRI (CD89) (Homo sapiens, UniProt P24071). The experiment is described as follows: SPR. Background: Surface plasmon resonance follows binding to a sensor surface in real time, without labels.
Sequence of FcαRI (CD89) (P24071 22-287): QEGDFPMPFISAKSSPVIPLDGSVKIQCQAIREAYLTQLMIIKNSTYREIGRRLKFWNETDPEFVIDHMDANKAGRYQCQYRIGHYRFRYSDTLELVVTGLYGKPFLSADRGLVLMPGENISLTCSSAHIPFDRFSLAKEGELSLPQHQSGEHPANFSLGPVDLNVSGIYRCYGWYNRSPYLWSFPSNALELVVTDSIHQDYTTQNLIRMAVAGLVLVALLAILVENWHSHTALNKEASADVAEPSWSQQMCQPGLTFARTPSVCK

B1: IgA2 (glycoforms) (protein)
chain: ASPTSPKVFPLSLDSTPQDGNVVVACLVQGFFPQEPLSVTWSESGQNVTARNFPPSQDASGDLYTTSSQLTLPATQCPDGKSVTCHVKHYTNSSQDVTVPCRVPPPPPCCHPRLSLHRPALEDLLLGSEANLTCTLTGLRDASGATFTWTPSSGKSAVQGPPERDLCGCYSVSSVLPGCAQPWNHGETFTCTAAHPELKTPLTANITKSGNTFRPEVHLLPPPSEELALNELVTLTCLARGFSPKDVLVRWLQGSQELPREKYLTWASRQEPSQGTTTYAVTSILRVAAEDWKKGETFSCMVGHEALPLAFTQKTIDRMAGSCCVADWQMPPPYVVLDLPQETLEEETPGANLWPTTITFLTLFLLSLFYSTALTVTSVRGPSGKREGPQY
B1 came in with a dissociation constant Kd of approximately 300 nM.
